Assay results reported in publication PMC10160106, “Symport and antiport mechanisms of human glutamate transporters” (Nature Communications, 2023).

Target: the molecule itself
Experiment: cryo-EM structure; EAAT3-X in 0.01% GDN, 20 mM HEPES-Tris pH 7.4, in 200 mM NaCl and 20 mM L-glutamate, 300 mM KCl, 150 mM NMDG chloride or 300 mM NaCl; maps refined with C3 symmetry, then symmetry expansion and local classification of protomers

B1: MinCys EAAT3 K269C/W441C crosslinked using Hg2+ (EAAT3-X) (natural protein, human, UniProt P43005 1-524, looked up)
chain: MGKPARKGAEWKRFLKNNWVLLSTVAAVVLGITTGVLVREHSNLSTLEKFYFAFPGEILMRMLKLIILPLIISSMITGVAALDSNVSGKIGLRAVVYYFATTLIAVILGIVLVVSIKPGVTQKVGEIARTGSTPEVSTVDAMLDLIRNMFPENLVQAAFQQYKTKREEVKPPSDPEMTMTEESFTAVMTTAISKTKTKEYKIVGMYSDGINVLGLIVFALVFGLVIGKMGEKGQILVDFFNALSDATMKIVQIIMWYMPLGILFLIAGCIIEVEDWEIFRKLGLYMATVLTGLAIHSIVILPLIYFIVVRKNPFRFAMGMAQALLTALMISSSSATLPVTFRCAEENNQVDKRITRFVLPVGATINMDGTALYEAVAAVFIAQLNDLDLGIGQIITISITATSASIGAAGVPQAGLVTMVIVLSAVGLPAEDVTLIIAVDCLLDRFRTMVNVLGDAFGTGIVEKLSKKELEQMDVSSEVNIVNPFALESTILDNEDSDTKKSYVNGGFAVDKSDTISFTQTSQF
modifications: Hg2+ crosslink between C269 and C441
notes: Homotrimer; also called crosslinked EAAT3-X; MiniCys EAAT3 K269C/W441C; source: HEK 293F, transfected, purified (Strep-Tactin, SEC in GDN), crosslinked with HgCl2; not shown: Strep-II, N-terminal, cleaved; GFP, N-terminal, cleaved
Question: B1 was tested. Which “stoichiometry N” value did it give?
Answer: Its value is 3.
